The target in the experiment is hMLH1-hMLH3 (human, UniProt P40692;Q9UHC1). The experiment is described as follows: pull-down.
Sequence of hMLH1-hMLH3 (P40692 whole entry, chain 1 of 2): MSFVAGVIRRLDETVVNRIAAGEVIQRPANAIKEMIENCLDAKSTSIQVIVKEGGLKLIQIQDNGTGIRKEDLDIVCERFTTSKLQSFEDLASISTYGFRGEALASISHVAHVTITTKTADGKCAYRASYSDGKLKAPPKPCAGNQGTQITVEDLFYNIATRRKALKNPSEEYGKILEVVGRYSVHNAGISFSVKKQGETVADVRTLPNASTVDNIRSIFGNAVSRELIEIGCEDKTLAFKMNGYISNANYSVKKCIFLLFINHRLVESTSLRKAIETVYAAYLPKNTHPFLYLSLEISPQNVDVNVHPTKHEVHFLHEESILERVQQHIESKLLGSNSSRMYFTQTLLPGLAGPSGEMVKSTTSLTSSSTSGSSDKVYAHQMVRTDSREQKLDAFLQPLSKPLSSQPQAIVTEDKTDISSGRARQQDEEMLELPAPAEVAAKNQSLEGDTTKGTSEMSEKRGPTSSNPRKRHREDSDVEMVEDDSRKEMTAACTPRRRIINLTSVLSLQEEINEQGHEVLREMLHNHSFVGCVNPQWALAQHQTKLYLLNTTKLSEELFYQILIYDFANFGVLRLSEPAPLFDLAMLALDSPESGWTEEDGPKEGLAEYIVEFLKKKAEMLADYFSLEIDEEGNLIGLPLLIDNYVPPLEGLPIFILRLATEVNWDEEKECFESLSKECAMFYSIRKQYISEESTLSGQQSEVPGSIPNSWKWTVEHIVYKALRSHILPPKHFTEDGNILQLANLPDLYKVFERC
Sequence of hMLH1-hMLH3 (Q9UHC1 whole entry, chain 2 of 2): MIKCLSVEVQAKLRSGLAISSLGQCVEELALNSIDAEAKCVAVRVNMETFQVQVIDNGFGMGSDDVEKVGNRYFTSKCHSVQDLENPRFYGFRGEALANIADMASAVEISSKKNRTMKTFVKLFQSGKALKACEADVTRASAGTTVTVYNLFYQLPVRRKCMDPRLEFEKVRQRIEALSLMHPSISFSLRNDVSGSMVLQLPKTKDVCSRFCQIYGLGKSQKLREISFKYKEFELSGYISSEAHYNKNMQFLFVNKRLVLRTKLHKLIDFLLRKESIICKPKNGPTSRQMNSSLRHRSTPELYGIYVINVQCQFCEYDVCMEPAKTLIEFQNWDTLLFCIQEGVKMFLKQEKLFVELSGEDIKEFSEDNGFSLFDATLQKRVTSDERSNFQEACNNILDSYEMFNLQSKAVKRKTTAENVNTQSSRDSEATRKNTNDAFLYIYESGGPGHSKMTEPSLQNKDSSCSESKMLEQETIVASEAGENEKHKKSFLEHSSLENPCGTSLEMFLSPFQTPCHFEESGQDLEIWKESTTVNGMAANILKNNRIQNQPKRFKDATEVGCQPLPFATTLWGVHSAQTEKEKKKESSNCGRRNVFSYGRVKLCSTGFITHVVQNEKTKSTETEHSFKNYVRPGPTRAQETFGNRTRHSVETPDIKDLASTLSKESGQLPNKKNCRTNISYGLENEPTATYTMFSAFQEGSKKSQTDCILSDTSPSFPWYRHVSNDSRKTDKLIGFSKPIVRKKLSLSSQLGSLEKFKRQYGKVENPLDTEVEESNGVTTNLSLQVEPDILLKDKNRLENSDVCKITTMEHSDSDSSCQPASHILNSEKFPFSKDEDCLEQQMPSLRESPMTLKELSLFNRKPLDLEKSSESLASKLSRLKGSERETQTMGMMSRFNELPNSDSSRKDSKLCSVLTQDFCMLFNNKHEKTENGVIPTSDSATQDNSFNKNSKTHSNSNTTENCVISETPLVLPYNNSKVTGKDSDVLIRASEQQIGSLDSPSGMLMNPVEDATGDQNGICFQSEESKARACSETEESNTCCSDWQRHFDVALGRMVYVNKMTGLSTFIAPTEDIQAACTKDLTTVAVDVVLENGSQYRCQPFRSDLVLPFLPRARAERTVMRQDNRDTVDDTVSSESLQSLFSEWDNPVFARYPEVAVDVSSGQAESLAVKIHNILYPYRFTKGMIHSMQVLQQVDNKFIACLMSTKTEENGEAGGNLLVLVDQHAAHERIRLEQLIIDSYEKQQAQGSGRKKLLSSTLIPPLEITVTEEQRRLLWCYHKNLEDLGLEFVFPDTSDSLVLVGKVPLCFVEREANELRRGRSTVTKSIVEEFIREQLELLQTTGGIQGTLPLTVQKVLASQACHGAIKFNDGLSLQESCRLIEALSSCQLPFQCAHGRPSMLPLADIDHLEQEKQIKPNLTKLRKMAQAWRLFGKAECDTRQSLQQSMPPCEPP

B1: hEXO1(D173A) (enzyme)
chain: MGIQGLLQFIKEASEPIHVRKYKGQVVAVDTYCWLHKGAIACAEKLAKGEPTDRYVGFCMKFVNMLLSHGIKPILVFDGCTLPSKKEVERSRRERRQANLLKGKQLLREGKVSEARECFTRSINITHAMAHKVIKAARSQGVDCLVAPYEADAQLAYLNKAGIVQAIITEDSALLAFGCKKVILKMDQFGNGLEIDQARLGMCRQLGDVFTEEKFRYMCILSGCDYLSSLRGIGLAKACKVLRLANNPDIVKVIKKIGHYLKMNITVPEDYINGFIRANNTFLYQLVFDPIKRKLIPLNAYEDDVDPETLSYAGQYVDDSIALQIALGNKDINTFEQIDDYNPDTAMPAHSRSHSWDDKTCQKSANVSSIWHRNYSPRPESGTVSDAPQLKENPSTVGVERVISTKGLNLPRKSSIVKRPRSAELSEDDLLSQYSLSFTKKTKKNSSEGNKSLSFSEVFVPDLVNGPTNKKSVSTPPRTRNKFATFLQRKNEESGAVVVPGTRSRFFCSSDSTDCVSNKVSIQPLDETAVTDKENNLHESEYGDQEGKRLVDTDVARNSSDDIPNNHIPGDHIPDKATVFTDEESYSFESSKFTRTISPPTLGTLRSCFSWSGGLGDFSRTPSPSPSTALQQFRRKSDSPTSLPENNMSDVSQLKSEESSDDESHPLREEACSSQSQESGEFSLQSSNASKLSQCSSKDSDSEESDCNIKLLDSQSDQTSKLRLSHFSKKDTPLRNKVPGLYKSSSADSLSTTKIKPLGPARASGLSKKPASIQKRKHHNAENKPGLQIKLNELWKNFGFKKDSEKLPPCKKPLSPVRDNIQLTPEAEEDIFNKPECGRVQRAIFQ
For B1, the binding result is recorded as “binds”.

For the origin of these results see doi:10.1101/2020.02.12.946293 (bioRxiv, 2020).
